Test results taken from US20260166131A1, “METHOD FOR PROMOTING PATHOLOGICAL TDP-43 PROTEIN DEGRADATION, AND DRUG” (TALENGEN INTERNATIONAL LIMITED, priority 2022, published 2026).
“Also recorded” adds a separate entry of the source.

Tests used:
TDP-43 [1] = assay: TDP-43 in brain tissue of mice injected with TDP-43 in the brain and LPS (Western blot); assay type: in vivo; details: C57BL/6J mice, hippocampal TDP-43 injection + LPS, 50 mg/kg tail vein for 3 days, vs vehicle group, P<0.05
Procedure: Nine C57BL/6J female mice aged 6-7 weeks were selected and weighed before modeling. After weighing, all mice were randomly divided into two groups: 3 mice in blank control group, and 6 mice in model group. After grouping, mice in the sham operation group and model group were anesthetized with intraperitoneal injection of tribromoethanol at a dose of 20 mL/kg. Model mice were located in the hippocampus according to the mouse stereotaxic atlas (based on the coordinates of the bregma: AP-2.54 mm, ML±2 mm, DV-2.4 mm), and each mouse was slowly microinjected bilaterally. Mice in the sham operation group were only drilled at the coordinate location point without injection. The mice in the model group were injected with TDP-43 solution at an injection rate of 0.5 μL/min and an injection volume of 3 μL/side. After the injection, the syringe stayed for 5 minutes and then slowly withdrew. Three days after the brain localization injection, all mice were weighed, and the mice in the model group were intraperitoneally injected with 5 mg/kg LPS solution according to their body weight. Then the mice in the model group were randomly divided into two groups: 3 mice in the plasminogen group and 3 mice in the vehicle group. […] The vehicle and plasminogen were administered continuously for 3 days. […] After homogenization, TDP-43 was detected by western blot.

[2] = Spinal cord tissue plasminogen level in MPTP Parkinson's model mice (ELISA); assay type: in vivo, mouse; details: 50 mg/kg tail vein
[3] = Plasmin activity in brain homogenate of FAD mice (enzyme substrate kinetic method); assay type: in vivo, mouse; details: 2 hours
Procedure: 85 μL/well of seven different concentrations of standard solution, blank, and sample were added to the ELISA plate (manufacturer: NUNC, catalog number: 446469) in sequence, and then 15 μL of 20 mM S-2251 solution (manufacturer: Chromogenix, catalog number: 82033239) was added to each well to incubate at 37° C. Starting from 0 min of reaction, the A405 absorbance value was read in a multifunctional microplate reader every 5 min until the reaction time was 90 min. All reactions were fitted with a straight line by time and absorbance, and the slope of the straight line was the reaction rate of the standard/sample (ΔA405/min). Finally, the potency value of the standard substance and ΔA405/min were used to create a standard curve to calculate the potency of the measured samples. The plasmin activity per unit of total protein in each sample was calculated.

TDP-43 [4] = molecular target: TDP-43 (Mus musculus, UniProt Q921F2); assay: TDP-43 in cytoplasm and nucleus of NSC34 cells treated with okadaic acid (Western blot); assay type: cell-based; design: host or cells: NSC34 cells; details: okadaic acid 2.5 ng/uL 24 h, plasminogen 0.5 mg/mL 24 hours, vs vehicle group
Sequence of TDP-43 (Mus musculus, UniProt Q921F2) (Q921F2 whole entry): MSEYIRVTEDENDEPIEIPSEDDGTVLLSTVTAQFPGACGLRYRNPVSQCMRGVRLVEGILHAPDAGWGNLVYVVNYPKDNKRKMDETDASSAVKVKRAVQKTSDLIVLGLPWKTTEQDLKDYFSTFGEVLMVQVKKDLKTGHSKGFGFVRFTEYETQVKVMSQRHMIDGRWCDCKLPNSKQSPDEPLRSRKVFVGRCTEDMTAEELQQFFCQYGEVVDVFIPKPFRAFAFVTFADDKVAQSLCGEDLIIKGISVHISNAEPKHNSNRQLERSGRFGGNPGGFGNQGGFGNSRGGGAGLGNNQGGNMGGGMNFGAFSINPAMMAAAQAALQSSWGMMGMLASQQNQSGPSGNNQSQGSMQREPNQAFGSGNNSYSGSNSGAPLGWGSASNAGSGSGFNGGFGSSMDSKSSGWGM
Procedure: 10^6 NSC34 cells (Otwo Biotech, HTX1846) were inoculated in a 9 cm^2 culture dish, and cultured in DMEM medium (Gibco, 11965092) containing 10% fetal bovine serum (EVERY GREEN, 11011-8611). The cells were placed in a carbon dioxide incubator for culture at 37.0° C. and 5% CO2. After the cells grew for 48 hours and reached about 80%-90% abundance, the medium was changed, and subsequent experiments were performed. […] After adding plasminogen for 24 hours, the cells were harvested. The culture supernatant was sucked off, washing with 1×PBS, digesting with 1 mL of 0.25% pancreatic enzyme for 2-3 minutes, then stopping digestion with 5-6 mL of DMEM complete medium when the cells were obviously detached. The cells were slowly blown, and the suspension was collected into a centrifuge tube, centrifuging at 1500 rpm for 5 min to remove the supernatant, resuspending with pre-cooled 1×PBS, and counting the cells. 200 μL of plasma protein extraction reagent (the volume of a pellet of 2×10^6 cells is about 20 μL or 40 mg) (Solarbio, R0050) was added for every 20 μL of cell pellet. The cell pellet was completely dispersed into a single-cell suspension by pipette blow or high-speed vortex for 15 seconds, then ice-bathing for 10 minutes, vortexing vigorously at maximum speed for 10 seconds and centrifuging at 12,000-16,000 g for 10 minutes at 4° C. […]

B1: plasminogen: human plasminogen purified from human donor plasma, in which human Lys-plasminogen and Glu-plasminogen are >98% (protein)
chain: KVYLSECKTGNGKNYRGTMSKTKNGITCQKWSSTSPHRPRFSPATHPSEGLEENYCRNPDNDPQGPWCYTTDPEKRYDYCDILECEEECMHCSGENYDGKISKTMSGLECQAWDSQSPHAHGYIPSKFPNKNLKKNYCRNPDRELRPWCFTTDPNKRWELCDIPRCTTPPPSSGPTYQCLKGTGENYRGNVAVTVSGHTCQHWSAQTPHTHNRTPENFPCKNLDENYCRNPDGKRAPWCHTTNSQVRWEYCKIPSCDSSPVSTEQLAPTAPPELTPVVQDCYHGDGQSYRGTSSTTTTGKKCQSWSSMTPHRHQKTPENYPNAGLTMNYCRNPDADKGPWCFTTDPSVRWEYCNLKKCSGTEASVVAPPPVVLLPDVETPSEEDCMFGNGKGYRGKRATTVTGTPCQDWAAQEPHRHSIFTPETNPRAGLEKNYCRNPDGDVGGPWCYTTNPRKLYDYCDVPQCAAPSFDCGKPQVEPKKCPGRVVGGCVAHPHSWPWQVSLRTRFGMHFCGGTLISPEWVLTAAHCLEKSPRPSSYKVILGAHQEVNLEPHVQEIEVSRLFLEPTRKDIALLKLSSPAVITDKVIPACLPSPNYVVADRTECFITGWGETQGTFGAGLLKEAQLPVIENKVCNRYEFLNGRVQSTELCAGHLAGGTDSCQGDSGGPLVCFEKDKYILQGVTSWGLGCARPNKPGVYVRVSRFVTWIEGVMRNN
amount of TDP-43 monomer in brain tissue (TDP-43 [1]): significantly lower
amount of low molecular weight TDP-43 in brain tissue (TDP-43 [1]): significantly lower
time within which plasminogen is almost completely metabolized (spinal cord tissue) [2]: 12 to 24 h
plasminogen level in the spinal cord tissue ([2]; vs vehicle group): significantly higher
plasmin activity level in brain tissue ([3]; tail vein injection of 6 mg/kg, 6 mg/kg): increases significantly
plasmin activity level in brain tissue ([3]; tail vein injection of 50 mg/kg, 50 mg/kg): increases significantly
level in brain tissue, 50 mg/kg group compared with 6 mg/kg group ([3]; tail vein): significantly higher
level of TDP-43 in the cytoplasm (TDP-43 [4]): significantly lower; also recorded: almost significantly or significantly lower
level of TDP-43 in the nucleus (TDP-43 [4]): significantly lower; also recorded: almost significantly or significantly lower
